Literature values, collected in article PMC10276003.

Molecular target: GRB2 (Homo sapiens) (UniProt P62993)

Kd: 0.7 µM
Substance: GRB2 (from UniProt P62993)
